From patent US20240301049A1 (Ablynx, published 2024)

T1: cyno IL-6 (cynomolgus monkey, UniProt P79341 28-212, limits assumed)
T1 sequence (looked up): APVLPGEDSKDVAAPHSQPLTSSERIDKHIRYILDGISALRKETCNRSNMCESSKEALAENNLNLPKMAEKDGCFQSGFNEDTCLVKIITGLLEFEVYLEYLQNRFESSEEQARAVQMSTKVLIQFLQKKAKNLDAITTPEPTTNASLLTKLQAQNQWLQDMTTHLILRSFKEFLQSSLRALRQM

B1: F027200812 (bispecific antibody)
chain: DVQLVESGGGVVQPGGSLRLSCAASGRTFSNYAMAWFRQAPGKEREFVAVISYAGGRTYYADSVKGRFTISRDNAKNTVYLQMNSLRPEDTALYYCAAVDSPLIATHPRGYDYWGQGTLVTVSSGGGGSGGGSEVQLVESGGGVVQPGGSLRLSCAASGFTFRSFGMSWVRQAPGKGPEWVSSISGSGSDTLYADSVKGRFTISRDNSKNTLYLQMNSLRPEDTALYYCTIGGSLSRSSQGTLVTVSSGGGGSGGGSEVQLVESGGGVVQPGGSLRLSCAASGFSLDYYGVGWFRQAPGKEREGVSCISSSEGDTYYADSVKGRFTISRDNAKNTVYLQMNSLRPEDTALYYCATDLSDYGVCSRWPSPYDYWGQGTLVKVSSGGGGSGGGSEVQLVESGGGVVQPGGSLRLSCTASGFTFSTADMGWFRQAPGKGREFVARISGIDGTTYYDEPVKGRFTISRDNSKNTVYLQMNSLRPEDTALYYCRSPRYADQWSAYDYWGQGTLVKVSS
B2: F027201029 (bispecific antibody)
chain: EVQLVESGGGVVQPGGSLRLSCTASGFTFSTADMGWFRQAPGKGREFVARISGIDGTTYYDEPVKGRFTISRDNSKNTVYLQMNSLRPEDTALYYCRSPRYADQWSAYDYWGQGTLVKVSSGGGGSGGGSDVQLVESGGGVVQPGGSLRLSCAASGRTFSNYAMAWFRQAPGKEREFVAVISYAGGRTYYADSVKGRFTISRDNAKNTVYLQMNSLRPEDTALYYCAAVDSPLIATHPRGYDYWGQGTLVTVSSGGGGSGGGSEVQLVESGGGVVQPGGSLRLSCAASGFTFRSFGMSWVRQAPGKGPEWVSSISGSGSDTLYADSVKGRFTISRDNSKNTLYLQMNSLRPEDTALYYCTIGGSLSRSSQGTLVTVSSGGGGSGGGSEVQLVESGGGVVQPGGSLRLSCAASGIIFSINAMGWYRQAPGKQRELVADIFPFGSTEYADSVKGRFTISRDNAKNTVYLQMNSLRPEDTALYYCHSYDPRGDDYWGQGTLVTVSS
B3: F027200809 (bispecific antibody)
chain: EVQLVESGGGVVQPGGSLRLSCTASGFTFSTADMGWFRQAPGKGREFVARISGIDGTTYYDEPVKGRFTISRDNSKNTVYLQMNSLRPEDTALYYCRSPRYADQWSAYDYWGQGTLVKVSSGGGGSGGGSDVQLVESGGGVVQPGGSLRLSCAASGRTFSNYAMAWFRQAPGKEREFVAVISYAGGRTYYADSVKGRFTISRDNAKNTVYLQMNSLRPEDTALYYCAAVDSPLIATHPRGYDYWGQGTLVTVSSGGGGSGGGSEVQLVESGGGVVQPGGSLRLSCAASGFTFRSFGMSWVRQAPGKGPEWVSSISGSGSDTLYADSVKGRFTISRDNSKNTLYLQMNSLRPEDTALYYCTIGGSLSRSSQGTLVTVSSGGGGSGGGSEVQLVESGGGVVQPGGSLRLSCAASGFSLDYYGVGWFRQAPGKEREGVSCISSSEGDTYYADSVKGRFTISRDNAKNTVYLQMNSLRPEDTALYYCATDLSDYGVCSRWPSPYDYWGQGTLVKVSS
B4: F027200166 (bispecific antibody)
chain: EVQLVESGGGVVQPGGSLRLSCAASGIIFSINAMGWYRQAPGKQRELVADIFPFGSTEYADSVKGRFTISRDNAKNTVYLQMNSLRPEDTALYYCHSYDPRGDDYWGQGTLVTVSSGGGGSGGGSEVQLVESGGGVVQPGGSLRLSCAASGFTLAYYAIGWFRQAPGKEREGVSCISGSVGTTYYADSVKGRFTISRDNAKNTVYLQMNSLRPEDTALYYCVRSSWFDCGVQGRDLGNEYDYRGQGTLVTVSSGGGGSGGGSEVQLVESGGGVVQPGGSLRLSCAASGFTFRSFGMSWVRQAPGKGPEWVSSISGSGSDTLYADSVKGRFTISRDNSKNTLYLQMNSLRPEDTALYYCTIGGSLSRSSQGTLVTVSSGGGGSGGGSEVQLVESGGGVVQPGGSLRLSCTASGFTFSTADMGWFRQAPGKGREFVARISGIDGTTYYDEPVKGRFTISRDNSKNTVYLQMNSLRPEDTALYYCRSPRYADQWSAYDYWGQGTLVKVSS
B5: F027200157 (bispecific antibody)
chain: EVQLVESGGGVVQPGGSLRLSCTASGFTFSTADMGWFRQAPGKGREFVARISGIDGTTYYDEPVKGRFTISRDNSKNTVYLQMNSLRPEDTALYYCRSPRYADQWSAYDYWGQGTLVKVSSGGGGSGGGSEVQLVESGGGVVQPGGSLRLSCAASGFTFRSFGMSWVRQAPGKGPEWVSSISGSGSDTLYADSVKGRFTISRDNSKNTLYLQMNSLRPEDTALYYCTIGGSLSRSSQGTLVTVSSGGGGSGGGSEVQLVESGGGVVQPGGSLRLSCAASGIIFSINAMGWYRQAPGKQRELVADIFPFGSTEYADSVKGRFTISRDNAKNTVYLQMNSLRPEDTALYYCHSYDPRGDDYWGQGTLVTVSSGGGGSGGGSEVQLVESGGGVVQPGGSLRLSCAASGFTLAYYAIGWFRQAPGKEREGVSCISGSVGTTYYADSVKGRFTISRDNAKNTVYLQMNSLRPEDTALYYCVRSSWFDCGVQGRDLGNEYDYRGQGTLVTVSS
B6: F027200929 (bispecific antibody)
chain: EVQLVESGGGVVQPGGSLRLSCAASGRTFSSYVMGWFRQAPGKEREFVSTINWAGSRGYYADSVKGRFTISRDNAKNTVYLQMNSLRPEDTALYYCAASAGGFLVPRVGQGYDYWGQGTLVTVSSGGGGSGGGSEVQLVESGGGVVQPGGSLRLSCAASGFTFRSFGMSWVRQAPGKGPEWVSSISGSGSDTLYADSVKGRFTISRDNSKNTLYLQMNSLRPEDTALYYCTIGGSLSRSSQGTLVTVSSGGGGSGGGSEVQLVESGGGVVQPGGSLRLSCAASGFSLDYYGVGWFRQAPGKEREGVSCISSSEGDTYYADSVKGRFTISRDNAKNTVYLQMNSLRPEDTALYYCATDLSDYGVCSRWPSPYDYWGQGTLVKVSSGGGGSGGGSEVQLVESGGGVVQPGGSLRLSCTASGFTFSTADMGWFRQAPGKGREFVARISGIDGTTYYDEPVKGRFTISRDNSKNTVYLQMNSLRPEDTALYYCRSPRYADQWSAYDYWGQGTLVKVSS

What follows are binders tested against T2, human TNF-α (human, UniProt P01375 77-233) (assay: cell-based or functional assay).
T2 sequence (P01375 77-233 limits assumed): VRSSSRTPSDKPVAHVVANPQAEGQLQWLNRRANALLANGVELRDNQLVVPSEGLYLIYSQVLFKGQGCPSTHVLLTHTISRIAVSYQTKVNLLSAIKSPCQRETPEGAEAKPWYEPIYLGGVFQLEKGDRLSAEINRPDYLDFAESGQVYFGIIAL

Ratio IC50 reference anti-TNF-α mAb/Nb [ratio]	hTNF-α Nfkb assay (IC50, pM) [pM]	Binder
0.62	206	B1
0.83	69	B2
0.91	141	B3

The binders below were run against T3, cyno TNF-α (cynomolgus monkey, UniProt P79337 77-233) (assay: cell-based or functional assay).
T3 sequence (P79337 77-233 limits assumed): as the sequence (P01375 77-233 limits assumed) above, with L37V, R44T, T72N, R138L counted along it

cyno TNF-α NFkb assay (IC50, pM) [pM]	Binder
360	B1
139	B2
329	B3

What follows are binders tested against T4, human IL-6 (human, UniProt P05231 30-212) (assay: cell-based or functional assay).

Ratio IC50 reference anti-IL-6 mAb1/Nb [ratio]	hIL-6 TF1 proliferation assay (IC50, pM) [pM]	Binder
1.7	72	B1
5.3	347	B2
1.7	68	B3

The binders below were run against T1, cyno IL-6 (assay: cell-based or functional assay).

cyno IL-6 TF1 proliferation assay (IC50, pM) [pM]	Binder
54	B1
209	B2
61	B3

Target: T2, human TNF-α
Experiment: cell-based or functional assay
Remark: another data set of the same source

IC50 hTNF-α Nfkb assay [nM]	Binder
0.16	B4
0.206	B1
0.124	B5
0.0858	B6
0.0685	B2
0.141	B3

Target: T3, cyno TNF-α
Experiment: cell-based or functional assay
Remark: another data set of the same source

Ratio IC50 cyno TNFα/hTNFα [ratio]	Binder
3.3	B4
1.7	B1
4	B5
3.2	B6
2	B2
2.3	B3

Target: T4, human IL-6
Experiment: cell-based or functional assay
Remark: another data set of the same source

IC50 hIL-6 TF1 proliferation assay [nM]	Binder
2.25	B4
0.072	B1
3.33	B5
0.0738	B6
0.347	B2
0.0682	B3

Target: T1, cyno IL-6
Experiment: cell-based or functional assay
Remark: another data set of the same source

Ratio IC50 cyno IL-6/hIL-6 [ratio]	Binder
10	B4
0.7	B1
7.1	B5
1	B6
0.6	B2
0.9	B3
